The target in series [1] is PrfA^WT (Listeria monocytogenes virulence master regulator PrfA) (Listeria monocytogenes) (UniProt P22262). As to the kind of experiment: ITC. In general terms: Isothermal titration calorimetry measures the heat released or taken up as one component is titrated into another.
Series [2] concerns the molecule itself. In words: crystal structure.

This note sets out measurements from publication doi:10.1101/2024.05.24.595734 (bioRxiv, 2024).

Take tripeptide EVF: the Kd – broadly, the free concentration of one partner at which half of the binding sites on the other are occupied at equilibrium, for simple one-to-one binding – in series [1] stood at 12 µM.

In the case of STLL [tetrapeptide STLL], the Kd in series [1] turned out to be 32 µM.

B1: PrfA^WT (Listeria monocytogenes virulence master regulator PrfA) (natural protein)
chain: GAMNAQAEEFKKYLETNGIKPKQFHKKELIFNQWDPQEYCIFLYDGITKLTSISENGTIMNLQYYKGAFVIMSGFIDTETSVGYYNLEVISEQATAYVIKINELKELLSKNLTHFFYVFQTLQKQVSYSLAKFNDFSINGKLGSICGQLLILTYVYGKETPDGIKITLDNLTMQELGYSSGIAHSSAVSRIISKLKQEKVIVYKNSCFYVQNLDYLKRYAPKLDEWFYLACPATWGKLN
Consider B1, for which the binding result in series [2] was “binds”.

For RGLL [tetrapeptide RGLL], in series [1], the Kd amounted to 145 µM.

Turning to EVFL [tetrapeptide EVFL], in series [1], the Kd worked out at 15 µM.
